Tests used:
[1] = biological target: T1, human BiP (Homo sapiens, UniProt P11021); assay: ELISA: binding of BiP-FLAG-His to immobilized (misfolded) protein ligands; settings: ligands coated at 5 μg/ml; 6BB peptides and oxLDL 50 μg/ml
T1 construct: The human BiP gene except the signal peptide encoding region was obtained from Geneart (Germany); linker […]; made in house; host or cells: HEK 293E cells, transient transfection, PABC674 vector; secreted into the medium
Procedure, shortened: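 Ligands were coated at 5 μg/ml (50 μg/ml for 6BB# peptides and oxLDL) in 50 mM NaHCO3 pH 9.6, blocked, then incubated in triplicate with BiP-FLAG-His dilution series for 1 h at room temperature. Bound BiP was detected with peroxidase anti-FLAG M2 and TMB, stopped after 5 min and read at 450 nm. Buffer-only and chaperone-omitted background signals were subtracted.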

[2] = biological target: T2, Escherichia coli HSP70 family member DnaK (Escherichia coli, UniProt P0A6Y8); assay: ELISA: binding of DnaK to immobilized (misfolded) protein ligands
T2 construct: purchased Stressgen (Ann Arbor, Mich., USA) SPP-630
Experimental: Recombinant Escherichia coli (E. coli) DnaK was purchased from Stressgen (Ann Arbor, Mich., USA; SPP-630). For the binding studies first lot B502468 (100 μg, lot A) and then lot 05240609 (200 μg, lot B) was used.
Binding of chaperones to immobilized (misfolded) protein ligands was determined using an enzyme linked immuno sorbent assay (ELISA) approach. For this purpose 50 μl/well of potential ligands at indicated concentrations or coat buffer only for control and background measurement purposes, were coated overnight at 4° C. or coated for 1 h at room temperature, with motion, in 50 mM NaHCO3 pH 9.6 (coat buffer). In general, ligands were coated at 5 μg/ml, unless stated otherwise. For example, BiP binding peptides 6BB# and oxLDL were coated at 50 μg/ml. Native haemoglobin (Sigma-Aldrich, H7379), albumin, IgIV Gammagard and ovalbumin controls were prepared from lyophilized stocks. The controls were prepared by dissolving lyophilized proteins at 1 mg/ml in PBS upon resuspending by pipetting, followed by a 30 minutes period at the roller device, at room temperature. The protein solutions were centrifuged for 10 minutes at 16,000*g and diluted in coat buffer. After coating the plates were washed at least three times with 50 mM Tris-HCl pH 7.3, 150 mM NaCl, 0.1% v/v Tween20, and blocked with Blocking reagent (Roche Diagnostics, Almere, The Netherlands; 11112589001), for 1 h at room temperature, with motion. Plates were washed three times and incubated in triplicate with indicated chaperone dilution series, at 50 μl/well, for 1 h at room temperature, with constant motion. For HSP90, 5 mM DTT is incorporated in the binding buffer (PBS/0.1% Tween20) to avoid unwanted disulfide bond formation of the HSP90. Plates were washed three times and incubated with anti-FLAG antibody (mouse antibody, M2, peroxidase conjugate; Sigma, A-8592) for BiP-FLAG-His, anti-His-tag antibody (Mouse Monoclonal Antibody, Cat. No. 70796, Novagen [0.2 mg/ml]) for HSP60, a 1:1 mix of 500-fold diluted anti-HSP90beta antibodies (Stressgen, SPA-643 [mouse monoclonal IgM], SPA-646 [rabbit polyclonal]) for HSP90 and an anti-DnaK antibody (Stressgen, 023SPA-880D [mouse monoclonal antibody]) for DnaK. After four wash cycles, secondary antibodies were added to the wells when required, 50 μl/well, for 45′ at room temperature, with motion. RAMPO and SWARPO were used at 3000 times dilution. […] In a second experiment with more immobilized misfolded proteins and controls, the detection of bound HSP90 with the mix of two anti-HSP90 antibodies was achieved by mixing 1:1500 SWARPO with 1:3000 RAMPO. After 5 washes with wash buffer followed by two washes with PBS, binding of antibodies was assessed. Bound anti-FLAG-PO, peroxidase-conjugated rabbit anti-mouse immunoglobulins (RAMPO, P0260, DAKOCytomation, Glostrup, Denmark) or peroxidase-coupled swine anti-rabbit immunoglobulins (SWARPO, P0217, DAKOCytomation) was visualized with tetramethylbenzidine (TMB, #45.01.20,/#45.014.01, Biosource, Nivelles, Belgium). The reaction was stopped after 5 minutes with 1% H2SO4 in H2O. Plates were read at 450 nm. Triplicates were averaged and standard deviations calculated. Background signals obtained with buffer-coated wells were subtracted (binding of primary antibody to empty wells), as well as background signals obtained with ligand-coated wells in which the chaperones were omitted (binding of primary and secondary antibody to coated ligands). Subsequently, sub-optimal concentrations of chaperones for binding to misfolded protein ligands are determined, and these concentrations are used for inhibition studies. […] We have previously identified that a sub-fraction of IgIV molecules has affinity for misfolded proteins comprising crossbeta structure (pending patent application). Moreover, we identified that the sub-fraction of IgIV molecules directly binds to crossbeta structure and/or crossbeta structure induced conformation (not shown; pending patent application). […]

T2 sequence (P0A6Y8 whole entry): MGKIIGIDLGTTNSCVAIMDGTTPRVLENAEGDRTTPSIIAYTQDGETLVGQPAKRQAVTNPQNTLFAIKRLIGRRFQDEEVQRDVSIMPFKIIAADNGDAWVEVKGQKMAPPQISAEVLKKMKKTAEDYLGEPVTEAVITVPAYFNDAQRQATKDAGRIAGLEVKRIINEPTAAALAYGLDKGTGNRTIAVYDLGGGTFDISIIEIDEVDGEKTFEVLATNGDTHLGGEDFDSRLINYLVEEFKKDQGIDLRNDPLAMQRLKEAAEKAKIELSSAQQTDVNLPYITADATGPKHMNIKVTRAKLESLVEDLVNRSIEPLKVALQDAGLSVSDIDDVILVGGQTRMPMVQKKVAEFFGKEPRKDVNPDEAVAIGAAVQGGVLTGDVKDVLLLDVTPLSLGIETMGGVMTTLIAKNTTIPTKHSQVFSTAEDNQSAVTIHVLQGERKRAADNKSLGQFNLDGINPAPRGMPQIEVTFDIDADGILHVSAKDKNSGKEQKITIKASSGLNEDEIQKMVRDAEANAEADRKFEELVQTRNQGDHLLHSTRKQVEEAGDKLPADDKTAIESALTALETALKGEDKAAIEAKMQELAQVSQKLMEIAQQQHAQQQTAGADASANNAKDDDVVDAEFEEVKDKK
T1 sequence (P11021 19-654): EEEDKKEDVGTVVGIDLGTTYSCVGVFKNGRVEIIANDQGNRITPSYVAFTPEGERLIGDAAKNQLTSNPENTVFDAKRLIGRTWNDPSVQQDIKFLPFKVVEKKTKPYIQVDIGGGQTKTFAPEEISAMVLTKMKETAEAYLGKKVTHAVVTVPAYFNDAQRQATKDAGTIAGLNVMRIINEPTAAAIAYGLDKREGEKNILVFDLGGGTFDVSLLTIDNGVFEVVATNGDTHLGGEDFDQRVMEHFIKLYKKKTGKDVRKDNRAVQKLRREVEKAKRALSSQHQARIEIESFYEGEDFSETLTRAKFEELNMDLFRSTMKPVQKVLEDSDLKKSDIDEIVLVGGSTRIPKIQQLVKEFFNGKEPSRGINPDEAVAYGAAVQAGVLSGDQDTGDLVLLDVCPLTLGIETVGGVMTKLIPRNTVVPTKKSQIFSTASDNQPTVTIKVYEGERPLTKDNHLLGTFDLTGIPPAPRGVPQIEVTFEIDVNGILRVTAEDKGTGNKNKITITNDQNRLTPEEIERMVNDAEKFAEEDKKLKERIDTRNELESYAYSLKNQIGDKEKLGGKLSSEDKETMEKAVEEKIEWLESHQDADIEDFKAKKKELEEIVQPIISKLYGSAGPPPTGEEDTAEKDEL

Substance	Binding of concentration series of BiP to coated ligand [1]	Binding of concentration series of DnaK to coated ligand [2]
AGEYYAAL [6BB7]	did not bind	No binding
BSA-AGE	has been established	has been established
GSNKGAIIGLM [6BB6, Human Aβ (25-35)]	has been established	has been established
Hb: non-modified human haemoglobin control	did not bind	Low binding
HbAGE: human haemoglobin glycated with glucose-6-phosphate for 75 weeks	has been established	has been established
KLVFFAE [6BB12, Human Aβ16-22]	no BiP binding was observed	did not bind
native BSA: non-modified bovine serum albumin control	did not bind	No binding
